In patent publication US20220010021A1 (Sanofi, published 2022):

T1: human beta-Klotho (KLB) (human, UniProt Q86Z14 53-997)
T1 construct: bought protein; also called human KLB
T1 sequence (looked up): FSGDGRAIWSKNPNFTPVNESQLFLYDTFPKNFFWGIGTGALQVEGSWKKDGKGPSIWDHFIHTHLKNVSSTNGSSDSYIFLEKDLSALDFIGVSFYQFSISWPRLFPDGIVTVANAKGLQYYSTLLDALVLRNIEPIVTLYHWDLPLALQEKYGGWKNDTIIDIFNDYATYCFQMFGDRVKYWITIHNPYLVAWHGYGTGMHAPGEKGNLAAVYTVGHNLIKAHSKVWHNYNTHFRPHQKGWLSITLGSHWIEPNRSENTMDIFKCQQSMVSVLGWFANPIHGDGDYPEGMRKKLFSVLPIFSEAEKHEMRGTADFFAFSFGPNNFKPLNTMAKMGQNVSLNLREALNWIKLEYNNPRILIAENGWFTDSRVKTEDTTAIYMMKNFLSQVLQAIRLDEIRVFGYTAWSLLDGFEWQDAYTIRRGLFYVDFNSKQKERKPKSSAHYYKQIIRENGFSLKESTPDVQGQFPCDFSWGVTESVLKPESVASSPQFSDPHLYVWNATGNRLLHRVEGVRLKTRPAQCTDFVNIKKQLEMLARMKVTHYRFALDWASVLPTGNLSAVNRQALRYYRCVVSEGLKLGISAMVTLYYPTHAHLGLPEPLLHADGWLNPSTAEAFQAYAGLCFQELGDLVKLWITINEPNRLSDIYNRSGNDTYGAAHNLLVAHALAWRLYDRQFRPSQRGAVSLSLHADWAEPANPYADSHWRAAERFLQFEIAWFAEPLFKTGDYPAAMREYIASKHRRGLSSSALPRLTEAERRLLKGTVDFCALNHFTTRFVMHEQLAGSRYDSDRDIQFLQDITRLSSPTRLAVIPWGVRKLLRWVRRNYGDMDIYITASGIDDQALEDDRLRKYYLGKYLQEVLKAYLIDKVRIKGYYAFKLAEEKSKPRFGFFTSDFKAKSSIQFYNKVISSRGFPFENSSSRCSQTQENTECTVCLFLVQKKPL


Columns and labels:
human beta-Klotho (KLB) = target: T1, human beta-Klotho (KLB); test: SPR;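 also: Anti-KLB antibodies captured on anti-human Fc CM5 chip, KLB injected as analyte, 180 s association and 1800 s dissociation, fitted to 1:1 binding model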
[1] = target: human FGFR1c + KLB receptor complex on HEK293 iLite FGF21 reporter cells (human, UniProt P11362 22-822; Q86Z14 1-1044); test: cell-based or functional assay
Chain of human FGFR1c + KLB receptor complex on HEK293 iLite FGF21 reporter cells (P11362 22-822, chain 1 of 2): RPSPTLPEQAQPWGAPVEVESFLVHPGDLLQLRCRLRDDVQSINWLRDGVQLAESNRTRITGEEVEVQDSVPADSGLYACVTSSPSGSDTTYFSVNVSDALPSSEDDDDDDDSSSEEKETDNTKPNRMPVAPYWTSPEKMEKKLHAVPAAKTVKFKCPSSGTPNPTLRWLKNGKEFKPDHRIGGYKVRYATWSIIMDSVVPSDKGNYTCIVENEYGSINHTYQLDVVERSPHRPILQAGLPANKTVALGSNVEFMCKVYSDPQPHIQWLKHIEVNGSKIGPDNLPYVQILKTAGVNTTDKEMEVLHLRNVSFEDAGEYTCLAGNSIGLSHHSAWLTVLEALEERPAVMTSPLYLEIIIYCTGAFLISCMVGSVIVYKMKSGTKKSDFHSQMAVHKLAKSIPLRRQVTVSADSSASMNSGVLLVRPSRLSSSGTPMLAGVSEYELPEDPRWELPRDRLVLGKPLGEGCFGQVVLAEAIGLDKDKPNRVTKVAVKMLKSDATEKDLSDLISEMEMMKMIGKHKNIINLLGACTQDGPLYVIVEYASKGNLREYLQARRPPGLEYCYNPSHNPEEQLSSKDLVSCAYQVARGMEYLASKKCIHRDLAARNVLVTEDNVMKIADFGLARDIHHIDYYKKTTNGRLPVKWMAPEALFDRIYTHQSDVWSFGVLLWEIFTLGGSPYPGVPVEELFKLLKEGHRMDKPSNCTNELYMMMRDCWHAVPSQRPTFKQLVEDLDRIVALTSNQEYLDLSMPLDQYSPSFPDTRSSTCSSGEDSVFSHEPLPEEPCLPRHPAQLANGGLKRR
Chain of human FGFR1c + KLB receptor complex on HEK293 iLite FGF21 reporter cells (Q86Z14 whole entry, chain 2 of 2): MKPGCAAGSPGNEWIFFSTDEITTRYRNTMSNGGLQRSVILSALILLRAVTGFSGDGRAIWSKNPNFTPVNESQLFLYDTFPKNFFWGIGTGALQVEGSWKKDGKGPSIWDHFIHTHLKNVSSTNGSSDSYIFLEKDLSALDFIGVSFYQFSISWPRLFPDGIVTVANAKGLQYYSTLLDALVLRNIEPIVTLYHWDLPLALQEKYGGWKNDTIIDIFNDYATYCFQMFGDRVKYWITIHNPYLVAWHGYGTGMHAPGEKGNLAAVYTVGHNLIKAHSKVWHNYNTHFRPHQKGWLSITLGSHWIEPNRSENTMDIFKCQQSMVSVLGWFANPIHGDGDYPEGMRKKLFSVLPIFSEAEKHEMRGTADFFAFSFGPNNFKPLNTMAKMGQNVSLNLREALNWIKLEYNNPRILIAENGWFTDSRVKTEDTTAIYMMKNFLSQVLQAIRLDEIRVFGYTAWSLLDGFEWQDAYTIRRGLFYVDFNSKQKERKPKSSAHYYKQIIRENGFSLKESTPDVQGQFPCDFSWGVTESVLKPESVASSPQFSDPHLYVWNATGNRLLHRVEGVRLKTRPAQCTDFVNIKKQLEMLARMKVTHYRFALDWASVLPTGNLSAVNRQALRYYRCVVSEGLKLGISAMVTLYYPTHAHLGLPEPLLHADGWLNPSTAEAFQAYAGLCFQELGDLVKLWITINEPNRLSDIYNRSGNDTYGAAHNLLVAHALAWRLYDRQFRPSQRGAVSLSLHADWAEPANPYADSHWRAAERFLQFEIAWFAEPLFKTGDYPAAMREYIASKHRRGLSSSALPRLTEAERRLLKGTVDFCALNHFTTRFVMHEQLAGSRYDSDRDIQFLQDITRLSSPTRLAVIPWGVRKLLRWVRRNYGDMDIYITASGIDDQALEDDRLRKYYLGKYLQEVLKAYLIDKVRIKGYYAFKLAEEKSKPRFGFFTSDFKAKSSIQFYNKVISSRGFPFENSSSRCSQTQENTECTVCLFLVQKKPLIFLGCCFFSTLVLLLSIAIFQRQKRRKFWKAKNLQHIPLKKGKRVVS

koff (human beta-Klotho (KLB)) | EC50 [1] | Emax [1] | Binder
0.000288 s⁻¹ | 50 pM | 1330% | Ab0306 (antibody, IgG4, V domains shown, IgG4 PE) VH: QVTLKESGPVLVKPTETLTLTCTVSGFSLNNARVGVSWIRQPPGKALEWLAHIFSNDEKSYSTSLKSRLTISKDTSKSQVVLTMTNMDPVDTATYYCARSVVTGGYYYEGMDVWGQGTTVTVSS VL: SYVLTQPPSVSVAPGQTARITCGGSNIGSESVHWYQQKPGQAPVLVVYDDSDRPSGIPERFSGSNSGNTATLTISRVEAGDEADYYCQVWDGESDHVVFGGGTKLTVLG
0.000251 s⁻¹ | 200 pM | 769% | Ab0333 (antibody, IgG4, V domains shown, IgG4 PE) VH: QVTLKESGPVLVKPTETLTLTCTVSGFSLNNARVGVSWIRQPPGKALEWLAHIFSNDEKSYSTSLKSRLTISKDTSKSQVVLTMTNMDPVDTATYYCARSVVTGGYYYEGMDVWGQGTTVTVSS VL: SYVLTQPPSVSVAPGQTARITCGGSNIGSESVHWYQQKPGQAPVLVVYSYSDRPSGIPERFSGSNSGNTATLTISRVEAGDEADYYCQVWAGSSDHVVFGGGTKLTVLG
0.0013 s⁻¹ | 50 pM | 1080% | Ab0311 (antibody, IgG4, V domains shown, IgG4 PE) VH: QVTLKESGPVLVKPTETLTLTCTVSGFSLNNARVGVSWIRQPPGKALEWLAHIFSNDEKSYSTSLKSRLTISKDTSKSQVVLTMTNMDPVDTATYYCARSVVTGGYYYEGMDVWGQGTTVTVSS VL: SYVLTQPPSVSVAPGQTARITCGGNNIGSESVHWYQQKPGQAPVLVVYYESDRPSGIPERFSGSNSGNTATLTISRVEAGDEADYYCQVWDGESDHVVFGGGTKLTVLG
0.00116 s⁻¹ | 50 pM | 1080% | Ab0310 (antibody, IgG4, V domains shown, IgG4 PE) VH: QVTLKESGPVLVKPTETLTLTCTVSGFSLNNARVGVSWIRQPPGKALEWLAHIFSNDEKSYSTSLKSRLTISKDTSKSQVVLTMTNMDPVDTATYYCARSVVTGGYYYEGMDVWGQGTTVTVSS VL: SYVLTQPPSVSVAPGQTARITCGGSNIGSESVHWYQQKPGQAPVLVVYDESDRPSGIPERFSGSNSGNTATLTISRVEAGDEADYYCQVWDGESDHVVFGGGTKLTVLG
0.000402 s⁻¹ | 50 pM | 1110% | Ab0314 (antibody, IgG4, V domains shown, IgG4 PE) VH: QVTLKESGPVLVKPTETLTLTCTVSGFSLNNARVGVSWIRQPPGKALEWLAHIFSNDEKSYSTSLKSRLTISKDTSKSQVVLTMTNMDPVDTATYYCARSVVTGGYYYEGMDVWGQGTTVTVSS VL: SYVLTQPPSVSVAPGQTARITCGGSNIGSESVHWYQQKPGQAPVLVVYDDSDRPSGIPERFSGSNSGNTATLTISRVEAGDEADYYCQVWTGESDHVVFGGGTKLTVLG
0.000429 s⁻¹ | 60 pM | 971% | Ab0338 (antibody, IgG4, V domains shown, IgG4 PE) VH: QVTLKESGPVLVKPTETLTLTCTVSGFSLNNARVGVSWIRQPPGKALEWLAHIFSNDEKSYSTSLKSRLTISKDTSKSQVVLTMTNMDPVDTATYYCARSVVTGGYYYEGMDVWGQGTTVTVSS VL: SYVLTQPPSVSVAPGQTARITCGGSNIGSESVHWYQQKPGQAPVLVVYSSSDRPSGIPERFSGSNSGNTATLTISRVEAGDEADYYCQVWAGSSDHVVFGGGTKLTVLG
0.0013 s⁻¹ | 60 pM | 1070% | Ab0308 (antibody, IgG4, V domains shown, IgG4 PE) VH: QVTLKESGPVLVKPTETLTLTCTVSGFSLNNARVGVSWIRQPPGKALEWLAHIFSNDEKSYSTSLKSRLTISKDTSKSQVVLTMTNMDPVDTATYYCARSVVTGGYYYEGMDVWGQGTTVTVSS VL: SYVLTQPPSVSVAPGQTARITCGGSNIGSESVHWYQQKPGQAPVLVVYYDSDRPSGIPERFSGSNSGNTATLTISRVEAGDEADYYCQVWDGESDHVVFGGGTKLTVLG
0.00175 s⁻¹ | 70 pM | 1010% | Ab0326 (antibody, IgG4, V domains shown, IgG4 PE) VH: QVTLKESGPVLVKPTETLTLTCTVSGFSLNNARVGVSWIRQPPGKALEWLAHIFSNDEKSYSTSLKSRLTISKDTSKSQVVLTMTNMDPVDTATYYCARSVVTGGYYYEGMDVWGQGTTVTVSS VL: SYVLTQPPSVSVAPGQTARITCGGSNIGSESVHWYQQKPGQAPVLVVYYESDRPSGIPERFSGSNSGNTATLTISRVEAGDEADYYCQVWEGSSDHVVFGGGTKLTVLG
0.00053 s⁻¹ | 60 pM | 1030% | Ab0337 (antibody, IgG4, V domains shown, IgG4 PE) VH: QVTLKESGPVLVKPTETLTLTCTVSGFSLNNARVGVSWIRQPPGKALEWLAHIFSNDEKSYSTSLKSRLTISKDTSKSQVVLTMTNMDPVDTATYYCARSVVTGGYYYEGMDVWGQGTTVTVSS VL: SYVLTQPPSVSVAPGQTARITCGGSNIGSESVHWYQQKPGQAPVLVVYSHSDRPSGIPERFSGSNSGNTATLTISRVEAGDEADYYCQVWEGESDHVVFGGGTKLTVLG
0.00103 s⁻¹ | 40 pM | 1210% | Ab0309 (antibody, IgG4, V domains shown, IgG4 PE) VH: QVTLKESGPVLVKPTETLTLTCTVSGFSLNNARVGVSWIRQPPGKALEWLAHIFSNDEKSYSTSLKSRLTISKDTSKSQVVLTMTNMDPVDTATYYCARSVVTGGYYYEGMDVWGQGTTVTVSS VL: SYVLTQPPSVSVAPGQTARITCGGNNIGSESVHWYQQKPGQAPVLVVYDESDRPSGIPERFSGSNSGNTATLTISRVEAGDEADYYCQVWDGESDHVVFGGGTKLTVLG
0.000346 s⁻¹ | 50 pM | 995% | Ab0327 (antibody, IgG4, V domains shown, IgG4 PE) VH: QVTLKESGPVLVKPTETLTLTCTVSGFSLNNARVGVSWIRQPPGKALEWLAHIFSNDEKSYSTSLKSRLTISKDTSKSQVVLTMTNMDPVDTATYYCARSVVTGGYYYEGMDVWGQGTTVTVSS VL: SYVLTQPPSVSVAPGQTARITCGGSNIGSESVHWYQQKPGQAPVLVVYYYSDRPSGIPERFSGSNSGNTATLTISRVEAGDEADYYCQVWEGESDHVVFGGGTKLTVLG
0.00143 s⁻¹ | 50 pM | 995% | Ab0332 (antibody, IgG4, V domains shown, IgG4 PE) VH: QVTLKESGPVLVKPTETLTLTCTVSGFSLNNARVGVSWIRQPPGKALEWLAHIFSNDEKSYSTSLKSRLTISKDTSKSQVVLTMTNMDPVDTATYYCARSVVTGGYYYEGMDVWGQGTTVTVSS VL: SYVLTQPPSVSVAPGQTARITCGGSNIGSESVHWYQQKPGQAPVLVVYSESDRPSGIPERFSGSNSGNTATLTISRVEAGDEADYYCQVWEGASDHVVFGGGTKLTVLG
0.00118 s⁻¹ | 60 pM | 1150% | Ab0307 (antibody, IgG4, V domains shown, IgG4 PE) VH: QVTLKESGPVLVKPTETLTLTCTVSGFSLNNARVGVSWIRQPPGKALEWLAHIFSNDEKSYSTSLKSRLTISKDTSKSQVVLTMTNMDPVDTATYYCARSVVTGGYYYEGMDVWGQGTTVTVSS VL: SYVLTQPPSVSVAPGQTARITCGGNNIGSESVHWYQQKPGQAPVLVVYYDSDRPSGIPERFSGSNSGNTATLTISRVEAGDEADYYCQVWDGESDHVVFGGGTKLTVLG
0.00053 s⁻¹ | 70 pM | 1010% | Ab0312 (antibody, IgG4, V domains shown, IgG4 PE) VH: QVTLKESGPVLVKPTETLTLTCTVSGFSLNNARVGVSWIRQPPGKALEWLAHIFSNDEKSYSTSLKSRLTISKDTSKSQVVLTMTNMDPVDTATYYCARSVVTGGYYYEGMDVWGQGTTVTVSS VL: SYVLTQPPSVSVAPGQTARITCGGSNIGSESVHWYQQKPGQAPVLVVYYESDRPSGIPERFSGSNSGNTATLTISRVEAGDEADYYCQVWDGESDHVVFGGGTKLTVLG
